# B1: major capsid protein (MCP) (natural protein)
# chain: MALVPVGMAPRQMRVNRCIFASIVSFDACITYKSPCSPDAYHDDGWFICNNHLIKRFKMSKMVLPIFDEDDNQFKMTIARHLVGNKERGIKRILIPSATNYQDVFNLNSMMQAEQLIFHLIYNNENAVNTICDNLKYTEGFTSNTQRVIHSVYATTKSILDTTNPNTFCSRVSRDELRFFDVTNARALRGGAGDQLFNNYSGFLQNLIRRAVAPEYLQIDTEELRFRNCATCIIDETGLVASVPDGPELYNPIRSSDIMRSQPNRLQIRNVLKFEGDTRELDRTLSGYEEYPTYVPLFLGYQIINSENNFLRNDFIPRANPNATLGGGAVAGPAPGVAGEAGGGIAV
# notes: Major capsid protein VP39 (AC89) of Autographa californica multiple nucleopolyhedrovirus, as it stands in the budded virion; the model comprises Val15 to Asn320 (loop Asp27 to Ser34 built only in some subunits); the last 30 residues are not visible; Native protein in the nucleocapsid of intact budded virions; contains a CCCH zinc finger; also called VP39; AC89; source: AcMNPV budded virions …
# Target: the molecule itself
# Experiment: cryo-EM structure; intact AcMNPV budded virions purified from Sf9 culture, TE buffer (50 mM Tris, 0.5 mM EDTA, pH 8.7); helical reconstruction (C14, 4.2 Å) and localized reconstruction of four neighbouring VP39 dimers of the tube (3.1 Å)
protein,measurement,value
B1,stoichiometry N,2

# Reference: paper PMC11654684, “The nucleocapsid architecture and structural atlas of the prototype baculovirus define the hallmarks of a new viral realm” (Science Advances, 2024)
